# Results: the supplement of paper PMC9112550, “Optimization of the antimicrobial peptide Bac7 by deep mutational scanning” (BMC Biology, 2022)
# Tested on: Escherichia coli TOP10
# Assay: shrunken log2 fold change of peptide-encoding DNA abundance (4.5 h post-induction vs induction); higher = less antimicrobial activity (less host growth inhibition)
# Conditions: time post-induction: 4.5 h; library: site-saturation at positions 5, 18, 19, 20
# 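Note: peptides expressed intracellularly from a pBAD plasmid library in pooled LB shake-flask culture, induced with 0.3% L-arabinose, DNA abundance read by NGS, three biological replicates, DESeq2 with apeglm shrinkage.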
row,Sequence,shrunken log2 fold change
1,RRIRCRPPRLPRPRPRPCTPPRP,-0.778
2,RRIRPRPPRLPRPRPRPIGDPRP,-0.0205
3,RRIRDRPPRLPRPRPRPPYNPRP,-0.395
4,RRIRPRPPRLPRPRPRPYQPPRP,-0.125
5,RRIRWRPPRLPRPRPRPARKPRP,-0.0849
6,RRIRIRPPRLPRPRPRPSKEPRP,-0.202
7,RRIRLRPPRLPRPRPRPTTTPRP,0.00266
8,RRIRYRPPRLPRPRPRPLSPPRP,-0.352
9,RRIRARPPRLPRPRPRPPYQPRP,0.171
10,RRIRWRPPRLPRPRPRPHAFPRP,0.154
11,RRIRFRPPRLPRPRPRPHNRPRP,0.0584
12,RRIRPRPPRLPRPRPRPSQIPRP,-0.112
13,RRIRQRPPRLPRPRPRPLKRPRP,-0.0432
14,RRIRNRPPRLPRPRPRPCRDPRP,-0.0123
15,RRIRCRPPRLPRPRPRPDTHPRP,-0.716
16,RRIRRRPPRLPRPRPRPDVKPRP,3.47
17,RRIRLRPPRLPRPRPRPDILPRP,-0.154
18,RRIRWRPPRLPRPRPRPHTFPRP,-0.0424
19,RRIRSRPPRLPRPRPRPVCMPRP,-0.053
20,RRIRIRPPRLPRPRPRPQSCPRP,-0.0388
21,RRIRCRPPRLPRPRPRPDNIPRP,-0.0703
22,RRIRYRPPRLPRPRPRPNGLPRP,-0.0845
23,RRIRIRPPRLPRPRPRPQVPPRP,0.00863
24,RRIRMRPPRLPRPRPRPREWPRP,-0.0018
25,RRIRPRPPRLPRPRPRPARSPRP,0.315

row,Sequence,shrunken log2 fold change
1,RRIRSRPPRLPRPRPRPWKGPRP,-0.0267
2,RRIRIRPPRLPRPRPRPIIEPRP,-0.0807
3,RRIRKRPPRLPRPRPRPNVMPRP,-0.122
4,RRIRMRPPRLPRPRPRPHTGPRP,0.0957
5,RRIRHRPPRLPRPRPRPNIVPRP,-0.0257
6,RRIRGRPPRLPRPRPRPKCVPRP,0.505
7,RRIRIRPPRLPRPRPRPEWEPRP,0.068
8,RRIRSRPPRLPRPRPRPGTGPRP,0.103
9,RRIRARPPRLPRPRPRPYTEPRP,-0.583
10,RRIRTRPPRLPRPRPRPGCPPRP,0.086
11,RRIRSRPPRLPRPRPRPKPHPRP,0.213
12,RRIRGRPPRLPRPRPRPEPCPRP,0.795
13,RRIRTRPPRLPRPRPRPHIAPRP,-0.348
14,RRIRSRPPRLPRPRPRPSERPRP,0.245
15,RRIRDRPPRLPRPRPRPKQYPRP,-0.839
16,RRIRWRPPRLPRPRPRPRDFPRP,-0.031
17,RRIRWRPPRLPRPRPRPLRHPRP,0.751
18,RRIRQRPPRLPRPRPRPYGFPRP,0.0147
19,RRIRMRPPRLPRPRPRPKIWPRP,0.704
20,RRIRTRPPRLPRPRPRPRESPRP,0.207
21,RRIRIRPPRLPRPRPRPECIPRP,-0.0632
22,RRIRIRPPRLPRPRPRPKRMPRP,-0.518
23,RRIRFRPPRLPRPRPRPSNKPRP,-0.0849
24,RRIRERPPRLPRPRPRPPVMPRP,0.0499
25,RRIRCRPPRLPRPRPRPHHPPRP,-0.37

row,Sequence,shrunken log2 fold change
1,RRIRMRPPRLPRPRPRPYEWPRP,-0.0304
2,RRIRRRPPRLPRPRPRPQWTPRP,0.31
3,RRIRVRPPRLPRPRPRPRGGPRP,0.609
4,RRIRARPPRLPRPRPRPMTGPRP,0.0159
5,RRIRSRPPRLPRPRPRPLSMPRP,-0.115
6,RRIRDRPPRLPRPRPRPPLIPRP,0.129
7,RRIRQRPPRLPRPRPRPVFHPRP,-0.107
8,RRIRYRPPRLPRPRPRPNRLPRP,-0.0455
9,RRIRYRPPRLPRPRPRPQHFPRP,-0.0787
10,RRIRDRPPRLPRPRPRPYGRPRP,-0.0901
11,RRIRDRPPRLPRPRPRPRREPRP,0.281
12,RRIRTRPPRLPRPRPRPNCHPRP,-0.341
13,RRIRERPPRLPRPRPRPGECPRP,-0.0577
14,RRIRTRPPRLPRPRPRPHDKPRP,-0.51
15,RRIRNRPPRLPRPRPRPSETPRP,-0.083
16,RRIRSRPPRLPRPRPRPRTLPRP,0.128
17,RRIRLRPPRLPRPRPRPIGRPRP,0.0169
18,RRIRCRPPRLPRPRPRPIHPPRP,0.00281
19,RRIRMRPPRLPRPRPRPGLWPRP,1.1
20,RRIRIRPPRLPRPRPRPPVWPRP,0.187
21,RRIRYRPPRLPRPRPRPYVCPRP,-1.14
22,RRIRCRPPRLPRPRPRPCQDPRP,-0.178
23,RRIRWRPPRLPRPRPRPLNTPRP,0.0456
24,RRIRPRPPRLPRPRPRPSHQPRP,0.189
25,RRIRERPPRLPRPRPRPNRAPRP,0.0169

row,Sequence,shrunken log2 fold change
1,RRIRWRPPRLPRPRPRPKVLPRP,0.155
2,RRIRIRPPRLPRPRPRPFQDPRP,0.0408
3,RRIRRRPPRLPRPRPRPHMLPRP,-0.0594
4,RRIRERPPRLPRPRPRPLTDPRP,-0.394
5,RRIRQRPPRLPRPRPRPTCFPRP,0.132
6,RRIRGRPPRLPRPRPRPQLMPRP,0.509
7,RRIRQRPPRLPRPRPRPVMVPRP,0.11
8,RRIRTRPPRLPRPRPRPYPCPRP,-0.245
9,RRIRTRPPRLPRPRPRPEPEPRP,0.323
10,RRIRIRPPRLPRPRPRPDNTPRP,-0.947
11,RRIRVRPPRLPRPRPRPYEFPRP,2.15
12,RRIRYRPPRLPRPRPRPTKQPRP,0.0156
13,RRIRARPPRLPRPRPRPWPVPRP,0.558
14,RRIRYRPPRLPRPRPRPPPLPRP,0.616
15,RRIRNRPPRLPRPRPRPWCTPRP,-0.205
16,RRIRHRPPRLPRPRPRPLEYPRP,-0.168
17,RRIRARPPRLPRPRPRPSSMPRP,-0.144
18,RRIRQRPPRLPRPRPRPQPAPRP,0.218
19,RRIRWRPPRLPRPRPRPGFIPRP,0.0297
20,RRIRDRPPRLPRPRPRPQPKPRP,0.026
21,RRIRERPPRLPRPRPRPICTPRP,-0.249
22,RRIRFRPPRLPRPRPRPWTIPRP,-0.238
23,RRIRQRPPRLPRPRPRPSVCPRP,-0.14
24,RRIRCRPPRLPRPRPRPRENPRP,0.439
25,RRIRCRPPRLPRPRPRPCDEPRP,-0.0731

row,Sequence,shrunken log2 fold change
1,RRIRTRPPRLPRPRPRPVAQPRP,0.26
2,RRIRYRPPRLPRPRPRPHSQPRP,-0.71
3,RRIRLRPPRLPRPRPRPQQKPRP,-0.167
4,RRIRFRPPRLPRPRPRPVDMPRP,0.00603
5,RRIRVRPPRLPRPRPRPDANPRP,0.167
6,RRIRFRPPRLPRPRPRPHYEPRP,-0.0922
7,RRIRSRPPRLPRPRPRPVQRPRP,0.363
8,RRIRTRPPRLPRPRPRPNDLPRP,-0.354
9,RRIRWRPPRLPRPRPRPCRNPRP,-0.0199
10,RRIRKRPPRLPRPRPRPDLLPRP,0.237
11,RRIRWRPPRLPRPRPRPAEEPRP,3.62
12,RRIRIRPPRLPRPRPRPQGVPRP,-0.0375
13,RRIRNRPPRLPRPRPRPSQPPRP,-0.0682
14,RRIRMRPPRLPRPRPRPYDDPRP,-0.00329
15,RRIRCRPPRLPRPRPRPPHSPRP,0.395
16,RRIRPRPPRLPRPRPRPRQHPRP,0.182
17,RRIRFRPPRLPRPRPRPFFLPRP,-0.32
18,RRIRNRPPRLPRPRPRPFLGPRP,-0.00194
19,RRIRHRPPRLPRPRPRPVVGPRP,0.0224
20,RRIRKRPPRLPRPRPRPPQAPRP,0.0481
21,RRIRFRPPRLPRPRPRPNRYPRP,-0.319
22,RRIRERPPRLPRPRPRPHQDPRP,-0.0312
23,RRIRCRPPRLPRPRPRPSGFPRP,-0.218
24,RRIRARPPRLPRPRPRPSSCPRP,-0.0288
25,RRIRWRPPRLPRPRPRPAPHPRP,0.491

row,Sequence,shrunken log2 fold change
1,RRIRFRPPRLPRPRPRPRGHPRP,0.348
2,RRIRCRPPRLPRPRPRPTINPRP,-0.783
3,RRIRDRPPRLPRPRPRPVPFPRP,2.99
4,RRIRGRPPRLPRPRPRPTLWPRP,1.27
5,RRIRVRPPRLPRPRPRPACKPRP,-0.0847
6,RRIRKRPPRLPRPRPRPIFRPRP,0.132
7,RRIRLRPPRLPRPRPRPDLSPRP,-0.112
8,RRIRLRPPRLPRPRPRPRCKPRP,0.0707
9,RRIRERPPRLPRPRPRPWPPPRP,0.045
10,RRIRCRPPRLPRPRPRPLSEPRP,-0.219
11,RRIRVRPPRLPRPRPRPMKEPRP,-0.04
12,RRIRERPPRLPRPRPRPIDDPRP,0.0583
13,RRIRSRPPRLPRPRPRPKPTPRP,0.174
14,RRIRNRPPRLPRPRPRPIYPPRP,-0.246
15,RRIRCRPPRLPRPRPRPNAQPRP,0.164
16,RRIRTRPPRLPRPRPRPSGCPRP,-0.375
17,RRIRCRPPRLPRPRPRPKWPPRP,-0.0352
18,RRIRERPPRLPRPRPRPVVSPRP,-0.0681
19,RRIRKRPPRLPRPRPRPKTTPRP,0.0195
20,RRIRARPPRLPRPRPRPVMEPRP,1.04
21,RRIRGRPPRLPRPRPRPTIHPRP,0.434
22,RRIRLRPPRLPRPRPRPFLPPRP,-0.171
23,RRIRNRPPRLPRPRPRPVYYPRP,-0.562
24,RRIRYRPPRLPRPRPRPGVHPRP,-0.452
25,RRIRFRPPRLPRPRPRPHMKPRP,-0.585
